# According to the supplement of paper PMC12783771:
# ± gives the standard deviation of the averaged measurements.
# B1: library; numbered along this chain (parent)
# chain: MNIQIGELAKRTACPVVTIRFYEQEGLLPPPGRSRGNFRLYGEEHVERLQFIRHCRSLDMPLSDVRTLLSYRKRPDQDCGEVNMLLDEHIRQVESRIGALLELKHHLVELREACSGARPAQSCGILQGLSDCVCDTRGTTAHPSD
# Experiments:
# [1] = variants of: B1; assay: sfGFP reporter fluorescence (15 h) (µM FITC); higher = higher leak; conditions: library round: Round 0; ligand: none
# Procedure, shortened: (§1)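 PCR-made linear PbrR templates (Echo-normalized to 5 nM) were expressed in BL21 Star (DE3) extract (PANOx-SP) with pPbrR-sfGFP reporter plasmid and 30 μg/mL GamS. Reactions were 1 μL, Echo-assembled, with 1 µM lead chloride, 30 µM zinc acetate or no metal, incubated 15 hr at 30 °C. Endpoint sfGFP fluorescence (485/528 nm, Synergy Neo2) was converted to µM FITC via standard curves in 50 mM sodium borate pH 8.5. Up to three biological replicates.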
# [2] = variants of: B1; assay: sfGFP reporter fluorescence (15 h) (µM FITC); higher = stronger transcriptional activation; conditions: library round: Round 0
# Procedure, shortened: as §1
Variant,sfGFP reporter fluorescence [1],sfGFP reporter fluorescence ([2]; ligand: 1 µM Pb),sfGFP reporter fluorescence ([2]; ligand: 30 µM Zn)
I90K,0.0621 ± 0.0023,0.099 ± 0.0047,0.85 ± 0.061
I90M,0.0588 ± 0.0018,0.0625 ± 0.0018,0.384 ± 0.013
I90P,0.0574 ± 0.0029,0.0616 ± 0.0015,0.151 ± 0.0047
I90H,0.0619 ± 0.0036,0.0898 ± 0.0021,0.755 ± 0.0078
I90A,0.06249 ± 0.00026,0.0792 ± 0.0031,0.521 ± 0.0044
I90E,0.0579 ± 0.0042,0.05791 ± 0.00052,0.0977 ± 0.0018
I90T,0.0608 ± 0.0021,0.07953 ± 0.00052,0.595 ± 0.007
I90W,0.0585 ± 0.0023,0.0619 ± 0.001,0.272 ± 0.0062
I90D,0.0568 ± 0.0047,0.0561 ± 0.0015,0.085 ± 0.0057
I90S,0.0601 ± 0.0031,0.0671 ± 0.0036,0.384 ± 0.0091
I90G,0.0535 ± 0.0031,0.0577 ± 0.00078,0.222 ± 0.0086
I90N,0.05717 ± 0.00052,0.0601 ± 0.0036,0.279 ± 0.012
I90C,0.0592 ± 0.0018,0.0656 ± 0.00052,0.568 ± 0.012
I90V,0.059 ± 0.0036,0.064 ± 0.00078,0.583 ± 0.015
I90F,0.0566 ± 0.0054,0.063 ± 0.0026,0.339 ± 0.033
I90L,0.0559 ± 0.0029,0.0583 ± 0.0015,0.3539 ± 0.0034
I90Y,0.0608 ± 0.0026,0.108 ± 0.0023,0.9855 ± 0.0052
I90R,0.0658 ± 0.0049,0.125,0.97 ± 0.025
H89N,0.0597 ± 0.001,0.0663,0.261 ± 0.015
H89I,0.0539 ± 0.0047,0.0537 ± 0.0018,0.0594 ± 0.0021
H89Y,0.0596 ± 0.0018,0.0574 ± 0.0018,0.0566 ± 0.0023
H89G,0.0559 ± 0.0044,0.05443 ± 0.00026,0.0577 ± 0.0023
